# “And” between values parts separate entries of the source, which are not always exact repeats. Equal entries are not always repeated.
# B1: PlySs2 (CF-301): antistaphylococcal lysin from a Streptococcus suis prophage; N-terminal CHAP domain, C-terminal SH3-type binding domain; SEQ ID NO:3 (protein, listed as Streptococcus suis)
# chain: MTTVNEALNNVRAQVGSGVSVGNGECYALASWYERMISPDATVGLGAGVGWVSGAIGDTISAKNIGSSYNWQANGWTVSTSGPFKAGQIVTLGATPGNPYGHVVIVEAVDGDRLTILEQNYGGKRYPVRNYYSAASYRQQVVHYITPPGTVAQSAPNLAGSRSYRETGTMTVTVDALNVRRAPNTSGEIVAVYKRGESFDYDTVIIDVNGYVWVSYIGGSGKRNYVATGATKDGKRFGNAWGTFK
# Columns and labels:
# [1] = tested on: 171 clinical S. aureus isolates (MSSA, MRSA, vancomycin-, linezolid-, daptomycin-resistant); assay: MIC by broth microdilution in CAMHB vs human serum, 171 clinical isolates
# [2] = tested on: S. aureus ATCC 43300 (MRSA); assay: Checkerboard assay, additional MRSA strains; assay type: cell-based; settings: paired agent not given
# [3] = clinical grade, recombinant from E. coli; cited from earlier work
# [4] = tested on: S. aureus (strain not given); assay: MIC analysis of various lysins, chimeric lysins and antibiotics in MHB and human serum; assay type: cell-based; settings: Table 14 (Example 2)
# Description: To further evaluate the binding domain relevance to the serum component effect, various chimerics were constructed by replacing or swapping out one binding domain for another. Chimeric lysins having the Sal1 CHAP catalytic domain with ClyS binding domain, PlySs2 (CF-301) binding domain, or lysostaphin binding domain were assayed for MIC using MHB versus human serum. the results are depicted below in TABLE 14.
# S. aureus HPV 107 (MRSA) = assay: Checkerboard assay, additional MRSA strains; assay type: cell-based; settings: paired agent not given
# [5] = tested on: S. aureus (strain not given); assay: MIC analysis of various lysins, chimeric lysins and antibiotics in MHB and human serum; assay type: cell-based; settings: Table 2
# S. aureus strain MW2 [6] = settings: CAMHB (Schuch 2014); cited from earlier work
# [7] = tested on: S. aureus JMI 1280 (MRSA); assay: Checkerboard assay, additional MRSA strains; assay type: cell-based; settings: paired agent not given
# S. aureus NRS 100 (MRSA) = assay: Checkerboard assay, additional MRSA strains; assay type: cell-based; settings: paired agent not given
# [8] = tested on: S. aureus CAIRD 456 (MRSA); assay: Checkerboard assay, additional MRSA strains; assay type: cell-based; settings: paired agent not given
# [9] = tested on: S. aureus (strain not given); assay: MIC assay in supplemented media (recapitulation of blood effect; delipidated serum with fatty acids); assay type: cell-based
# [10] = tested on: methicillin-resistant S. aureus (MRSA) strain MW2; assay: Time-kill assay in blood matrices and MHB; assay type: cell-based
# S. aureus JMI 227 (MRSA) = assay: Checkerboard assay, additional MRSA strains; assay type: cell-based; settings: paired agent not given
# [11] = tested on: S. aureus JMI 4789 (MRSA); assay: Checkerboard assay, additional MRSA strains; assay type: cell-based; settings: paired agent not given
# S. aureus strain MW2 [12] = assay: Synergy time-kill assay; assay type: cell-based; settings: human serum
# MRSA strain MW2 = assay: Rabbit infective endocarditis model; assay type: in vivo, New Zealand White Rabbits; settings: rabbit; total dose ≥0.09 mg/kg PlySs2 (CF-301) in addition to DAP below the HTD equivalent
# S. aureus strain MW2 [13] = assay: MIC by broth microdilution in human blood matrices and animal sera; assay type: cell-based; settings: for PlySs2/CF-301 MIC: different lots
# Description: FIG. 5 provides PlySs2 (CF-301) MIC distribution for S. aureus MW2 in different human blood matrices. […] Each sample is described in Supplementary Table 1. The MICs are plotted on the x axis, and the numbers of patient samples with particular MICs are plotted on the y axis.
# To understand whether variation in the sources of human blood-derived matrices may impact activity, PlySs2 (CF-301) MICs were determined using an array of 62 different pooled and individual human donor samples of whole blood, serum and plasma from different commercial sources with variations in age, sex, blood type, and type of anticoagulant used. […] Histograms showing MIC frequencies for each of the different matrices indicate that activity in whole blood and serum is equivalent, while activity in plasma differs by ˜1-log 2 dilution (FIG. 5). Overall, the enhancer effect was not impacted by variations in the age, sex, and blood type of individual or pooled donors or by the use of sodium citrate or sodium heparin as anticoagulants (TABLE 3). The effect was also observed in complement-inactivate media, complement preserved media, and was equivalent in at least 3 different matched sets of human blood, serum and plasma fractions, while delipidated serum was not equivalent.
# The impact of sample variation on PlySs2 (CF-301) activity in the serum of different animal species was also examined.
# [14] = tested on: S. aureus NRS 271 (MRSA, LRSA); assay: Checkerboard assay, additional MRSA strains; assay type: cell-based; settings: paired agent not given
# [15] = medium head missing (human serum)
# [16] = human whole blood (n=13), serum (n=33) and plasma (n=15) samples
molecule,measurement,setting,value
B1,MIC Range,"[1]; MRSA (N 75), CAMHB",2-128
same,MIC Range,"[1]; MRSA (N 75), human serum",0.25-2
same,MIC Range,"[1]; MSSA (N 74), CAMHB",8-32
same,MIC Range,"[1]; MSSA (N 74), human serum",0.25-1
same,MIC Range,"[1]; Other (N 22: 12 vancomycin-, 5 linezolid-, 5 daptomycin-resistant strains), CAMHB",0.5-32^
same,MIC Range,"[1]; Other (N 22: 12 vancomycin-, 5 linezolid-, 5 daptomycin-resistant strains), human serum",0.25-2
same,ΣFICavg,[2]; CAMHB,0.87
same,ΣFICmin,[2]; CAMHB,0.5
same,ΣFICavg,[2]; [15],0.29
same,ΣFICmin,[2]; [15],0.25
same,pH range over which active,[3],6-9.7 pH
same,temperature range over which active,[3],16-55 °C
same,"Minimal inhibitory concentration, MHB",[4]; MHB,32 µg/mL
same,Fold decrease in MIC,[4]; human serum vs MHB,32
same,"Minimal inhibitory concentration, Human serum",[4]; human serum,1 µg/mL
same,ΣFICavg,S. aureus HPV 107 (MRSA); CAMHB,0.64
same,ΣFICmin,S. aureus HPV 107 (MRSA); CAMHB,0.5
same,ΣFICavg,S. aureus HPV 107 (MRSA); [15],0.44
same,ΣFICmin,S. aureus HPV 107 (MRSA); [15],0.38
same,"Minimal inhibitory concentration, MHB",[5]; MHB,32 µg/mL
same,Fold decrease in MIC,[5]; human serum vs MHB,32
same,"Minimal inhibitory concentration, Human serum",[5]; human serum,1 µg/mL
same,minimum concentration required for synergy with daptomycin,S. aureus strain MW2 [6],4 µg/mL
same,ΣFICavg,[7]; CAMHB,0.57
same,ΣFICmin,[7]; CAMHB,0.5
same,ΣFICavg,[7]; [15],0.29
same,ΣFICmin,[7]; [15],0.25
same,ΣFICavg,S. aureus NRS 100 (MRSA); CAMHB,0.75
same,ΣFICmin,S. aureus NRS 100 (MRSA); CAMHB,0.5
same,ΣFICavg,S. aureus NRS 100 (MRSA); [15],0.29
same,ΣFICmin,S. aureus NRS 100 (MRSA); [15],0.25
same,ΣFICavg,[8]; CAMHB,0.75
same,ΣFICmin,[8]; CAMHB,0.5
same,ΣFICavg,[8]; [15],0.44
same,ΣFICmin,[8]; [15],0.38
same,Fold decrease in MIC,"[9]; 50% MHB/50% human serum (heat inactivated) + HSA, 40 mg/mL",4
same,Fold decrease in MIC,"[9]; 50% MHB/50% human serum (heat inactivated) + HuLYZ, 10 μg/mL",2
same,Fold decrease in MIC,"[9]; 50% MHB/50% human serum (heat inactivated) + HuLYZ, 10 μg/mL + HSA 40 mg/mL",16
same,Fold decrease in MIC,"[9]; 50% MHB/50% human serum (heat inactivated) + MouseSA, 40 mg/mL",1
same,Fold decrease in MIC,"[9]; 50% MHB/50% human serum (heat inactivated) + RabSA, 40 mg/mL",4
same,Fold decrease in MIC,"[9]; 50% MHB/50% human serum (heat inactivated) + RatSA, 40 mg/mL",2
same,Fold decrease in MIC,"[9]; MHB supplemented with HSA, 40 mg/mL",8
same,Fold decrease in MIC,"[9]; MHB supplemented with HuLYZ, 10 μg/mL",2
same,Fold decrease in MIC,"[9]; MHB supplemented with HuLYZ, 10 μg/mL + HSA 40 mg/mL",16
same,Fold decrease in MIC,"[9]; MHB supplemented with RabSA, 40 mg/mL",8
same,Fold decrease in CF-301 MIC compared to media alone,[9]; delipidated human serum + Oleate (0.625 mg/mL),8
same,Fold decrease in CF-301 MIC compared to media alone,[9]; delipidated human serum + Palmitate (0.625 mg/mL),16
same,Fold decrease in CF-301 MIC compared to media alone,[9]; delipidated human serum + Palmitate + Oleate,16
same,minimum sterilizing concentration,[10]; MHB,320 µg/mL
same,minimum sterilizing concentration,"[10]; all human blood matrices (whole blood, serum, plasma), sterilizing by 24 hours",3.2 µg/mL
same,sterilizing concentration,[10]; calf serum,32 µg/mL
same,sterilizing concentration,[10]; dog serum,3.2 µg/mL
same,sterilizing concentration,[10]; mouse serum,> 320 µg/mL
same,sterilizing concentration,[10]; rabbit serum,3.2 µg/mL
same,sterilizing concentration,[10]; rat serum,32 µg/mL
same,"difference in sterilizing activity/potency, blood compared to MHB","[10]; strain MW2, human blood matrices vs MHB",100 fold
same,ΣFICavg,S. aureus JMI 227 (MRSA); CAMHB,0.64
same,ΣFICmin,S. aureus JMI 227 (MRSA); CAMHB,0.5
same,ΣFICavg,S. aureus JMI 227 (MRSA); [15],0.29
same,ΣFICmin,S. aureus JMI 227 (MRSA); [15],0.25
same,ΣFICavg,[11]; CAMHB,0.64
same,ΣFICmin,[11]; CAMHB,0.5
same,ΣFICavg,[11]; [15],0.29
same,ΣFICmin,[11]; [15],0.25
same,concentration of each agent in PlySs2 (CF-301) + lysostaphin combination sterilizing at 24 hours,S. aureus strain MW2 [12],0.005 µg/mL
same,minimum concentration demonstrating synergy with daptomycin,S. aureus strain MW2 [12],0.025 µg/mL
same,fold decrease in minimum sterilizing concentration vs single agent,S. aureus strain MW2 [12]; in combination with DAP,64 fold
same,decrease in bacterial densities as compared to DAP treatment alone,MRSA strain MW2,3 log 10
same,MIC,S. aureus strain MW2 [13]; AST medium,^$$MIC AST medium: 0.5 μg/mL
same,PlySs2/CF-301 MIC,S. aureus strain MW2 [13]; dog serum (undiluted),1 µg/mL and 0.5 µg/mL
same,MIC,"S. aureus strain MW2 [13]; human serum, delipidized, pooled lots",64
same,MIC90,S. aureus strain MW2 [13]; [16],1 µg/mL
same,MIC Range,S. aureus strain MW2 [13]; [16],0.5 to 2 µg/mL
same,PlySs2/CF-301 MIC,S. aureus strain MW2 [13]; mouse serum (undiluted),32 µg/mL and 64 µg/mL
same,PlySs2/CF-301 MIC,S. aureus strain MW2 [13]; rabbit serum (undiluted),1 µg/mL
same,PlySs2/CF-301 MIC,S. aureus strain MW2 [13]; rat serum (undiluted),8 µg/mL
same,ΣFICavg,[14]; CAMHB,0.5
same,ΣFICmin,[14]; CAMHB,0.38
same,ΣFICavg,[14]; [15],0.39
same,ΣFICmin,[14]; [15],0.25
